# Source: the DeepSol protein solubility set
# Assay: soluble on expression in E. coli; label from the status in PepcDB or PDB records
row,Sequence,soluble on expression in E. coli
1,MTDRRQYAPATQRNRETIAAVLQEYLPSQGSILEIASGTGEHACFFAPLFSPRWWITSDPDPLCRESIMAWRDHQALANFQSPLDLDVNDQVWPVEREILREPVTSIVAINLIHISPWESCLGLLTGAERILPEGGILYLYGPYRQKGVPTAPSNEAFDQSLQSRNPAWGLRQLEDVIGEAGKRNLHNQAIIPMPANNLSVIFQKGLEHHHHHH,not soluble
2,MTKKVAIILANEFEDIEYSSPKEALENAGFNTVVIGDTANSEVVGKHGEKVTVDVGIAEAKPEDYDALLIPGGFSPDHLRGDTEGRYGTFAKYFTKNDVPTFAICHGPQILIDTDDLKGRTLTAVLNVRKDLSNAGAHVVDESVVVDNNIVTSRVPDDLDDFNREIVKQLQ,not soluble
3,MAHHHHHHMKLLKVSPEKNIEFPLVHFQAVTQVVKLENISDRKVAFKIKTTAPNNYLVRPSFGLINVKETIDIQIILQPLSDKDNISNDKFQVQCLNVDDDTTVDKQFWVTVNKNEIQDHKLVVVLNDESFSKGPHSYLPPNNNPLTEINNKGHNLNYGENNLNADDANMAEGTNQRRPHRVCAAV,soluble
4,MAAVPELLEQQEEDRSKLRSVSVDLNVDPSLQIDIPDALSERDKVKFTVHTKTTLSTFQSPEFSVTRQHEDFVWLHDTLTETTDYAGLIIPPAPTKPDFDGPREKMQKLGEGEGSMTKEEFAKMKQELEAEYLAVFKKTVSTHEVFLQRLSSHPVLSKDRNFHVFLEYDQDLSVRRKNTKEMFGGFFKSVVKSADEVLFSGVKEVDDFFEQEKNFLINYYNRIKDSCAKADKMTRSHKNVADDYIHTAACLHSLALEEPTVIKKYLLKVAELFEKLRKVEGRVSSDEDLKLTELLRYYMLNIEAAKDLLYRRTKALIDYENSNKALDKARLKSKDVKLAETHQQECCQKFEQLSESAKEELINFKRKRVAAFRKNLIEMSELEIKHARNNVSLLQSCIDLFKNN,soluble
5,SAAAMAEQEGSKGSARNRGGVQRVEGKLRASVEKGDYYEAHQMYRTLFFRYMSQSKHIEARELMYSGALLFFSHSQQNSAADLSMLVLESLEKHEVKVTEELLENLAKLFSLMDPNSPERVAFVSRALKWSSGGSGKFGHQKLHQFLAITLWKEQNYYESRYHFLHSSDGEGCANMLVEYSSTRGYRSEVDMFVAQAVLQFLCLKNKTSASVVFTTYTQKHPSIERGPPFVQPLLNFIWFLLLAVEGGKLTVFTVLCEQYQPSLKRDPMYNEYLDRIGQLFFGLPPKQSSSYGGLLGNLLNSLMGSGEDDDVEDGQEDSSPIELD,soluble
6,METLLLVQLFHELALKGKNRPFFLKRAKAHVRRALKGLGVALEGEWPMALLFRLPEEAWPEAKARLQDTLGVERFARVHRTPPDLEALKAALEKALEGQAFGSFRITAKRSDKAFPLTSPEIERALGAFVKGKTGAPVRLKGAEREFVVRVLPGAALLEVERHPGPGGLPPGVSGRVVALLSGGIDSPVAAYRLMRRGAEVVLVHFHPFPLLSGASREKAKALAERLARFQHRLRLHLVPFSEVQRHIIVEAPTAYRVVLYRRYMLRIAEAIAREEGALALCTGDSLGQVASQTLENLHAVNQAATLPVFRPLIGWDKEEIVAEAQRIGTYATSILPDEECCTLFAPKHPVTRARLEVVLETEARLPTEELLALALKEREVLTYTWPGKPLPEEPEGAFIMEHGPA,soluble
7,MSLDSNTVAVNPDSLILKRFLKTNQLNGIMIVTGPDGKAQVFSNQSKVDGSPVSIKDYFPLASLQKLITGVAIQQLIDKGKLSLNTPLSKYYPQIENSENITIQNLLTHTSGLADRKEVPQQVLTTQEQQLDFSLTNYRVTYRKKWKYANINYALLAGIISQISGQNYATYVRQHFLTAGKGWHFKKYIQIKDKSKLAALSVMDQSTTWDKLSKEVTSTFGAGDYASRPVDYWKFMMAFINDQFVPVSEYQRSMKMTSKSYYGGLYISQKMLHANGGGFDTYSCFAYSNPKTKQVMVLFITNGKYKRVKSLAAKAFKLYADSYALRKNETSEGHHHHHH,soluble
8,MSLEFLQRDQAPLTAEEWEQIDKTAYEVFKSTVVCRKFMPVVGPFGAGHQVVSYDVLYGVEPGVCEVKPGQEYKVCEPVRTGERKHVPVPTLYKDFVISWRDLEHWRQFNLPVDTTGVAAAASSLAVAEDKLILFGNQEMGIEGFLTAKGTLREELSDWEKVGNAFQDVVKGISRLVEKGFYTNYYLIVNPKRYFLLNRIHDNTGLLELEQIKKVVKEVYQTPIIPEDIVLLVSASPANFDLAIALDVNVAFVETSNMNHTFRVMEMVVPRIKRPEAILIFSSEGHHHHHH,not soluble
9,MGSDKIHHHHHHMSKDCTIQDVFHRFYSSFESTHSISPAQRKAAYHIMNCKTGAFGVNVSVCEDCGCISVHYNSCRDRCCPMCQEFPKEKWVDARREDILDAPYFHVVFTVPEELNPIIYSNQKFLYAALYHAASDTLSELAADSKYLGTDIGYICILHTWGSTMNFHPHIHAIVLGGGLDVKNHWKDNGKDFFLPIKVISKTFRGKYMAELKQLWENDRLEFHGSAAPYKNHYTFKELLNTCYAKEWIPYCKKPFDGAESVIRYLGKYTHRIAISNYRIKDMTESTVTFSAKDYKNQGLWKEITISGEEFIRRFLMHVPPKRFVRIRHYGLLSSRNKKKKITLCRNILGCKKYISKLKDMDAPAIIRLLYNKDICKCSSCGGKIIPLPTEQHFIKPKPHMLC,not soluble
10,MSLDNDIFKLNVYIKNIDTSKSNLRYTEGYLQSLTNILTRAKEIAIQGASGTYESDDKKMISKEVNALLEDVVAIANAKGPDGYSIFSGTKIDSEAFKVTRENKISKTSKDGAGPQIIKVEYNGNQAEKKTEVYNDIHMSNNYPGNVIFFLQNQNIISSINTNGFAVKENTKIYIDNIEIGLTAGDTALDIVAKINESSAPVEASIDPVLNSLSIKTTTPHQIWITEEKESNVLQTLGILTKNNDTKLPPYNLSSSTEVRSRSIFDALIELRDTLYNNKEELVGSRSLAEIDESLKRLLISVADLGAKENRLDRSYERISKEAADMKEDMIQYTDLDVTKAITNLNMASLAYQVSIGISAKIMQTTLLDFIKEGHHHHHH,not soluble
11,SLSARSSHLSQPVVKSVLVYRNGDPFYAGRRVVIHEKKVSSFEVFLKEVTGGVQAPFGAVRNIYTPRTGHRIRKLDQIQSGGNYVAGGQEAFKKLNYLDIGEIKKRPMEVVNT,soluble
12,MSLHVKVIVFGGSGFLGSHLVNRLDADEMVYFSLEKGNSVTRKDAKWVSGDVTDYSKVAEAMKDVDVAIFAVEDWNADEKRNREILLDGIKNVVNAVKANNTEQKVVSFSIINHPSYPLEFFRTKRLVEDNTRVLKNGLVVRLSFLFGEGDHFTDRFRKLSERVGHLSPEGNLAPVYVDDVVKVVNSILKREGVYDICSNDNLPLIKIVNYIRKMNGKKEIGETKLEKAISAVVETGLFAEYEAHLLFQDYYRETNILDRYVKDPLSYLDFLRGISVTHTTEGHHHHHH,soluble
13,MGSDKIHHHHHHMQINRLFEIIYILLENRTITAAELAERFEVSARTIYRDVEILAQGGMPIYMSKGKGGGISLLPDFILNKAVLTEEEKSEILSSLQAFNAVNLSKSETALSKLTSMLGAKNTDWIEVDFSSWGHFENDRAYFENIKTAIIEKKIITFMYASGKAEKLLREVLPLKLVFKGAAWYLYGYCTLRRDYRFFKLRRITELAVTDTGFEMKTPETIFAGQKLDTGTYLKAKLLISKTMAFRVYDEISSYEIDEKGDFVCRLYLPDIATLCTYAASFGEHCIILSPEQAVAEMKRRLQNSLKNYS,not soluble
14,MGSDKIHHHHHHKLRDEGDAALKAKDYATVVTKYGEYLKQNNYQDTARIFNCGYAANQAKNYAEAAKYFDMAVKMNYNVDDSYVGEAMAYRNLNKTEEFLTTVKEGLKVIPDGNKNKTNLEKLLYGYCIKQGQAAQKKGDLAGAEKMYKEVLAVSNKDYQSNAYYSLGAMLYGNGAKILQAATPIATSEPDKYNAEKAKADKDFKQAKEYLTKAVELDPKDENSKKILASINDILK,not soluble
15,HYHGIAANPADIQHEFCTSAQSDLNETQWLLAAKSLGLKAKVVRQPIKRLAMATLPALVWCDDGNHFILAKTDGEGEHAQFLIQDLVTNKSAVLSFAEFSNRYSGKLILVASRASVLGSLAKFDFTWFIPAVIK,not soluble
16,MSLFMNPHRRFWMVTGWTKSAIWVARWLLGIRWQCQGWEHIEEAVATNKQVVLLSKHQSAWETIAFVAIMPRPLCYVFKRELLYVPFFGWALGMLKMVHINRKDGTNAFASVARQGKERMADGSWIIMFPEGTRTPVGAPNPRYKSGGARLAVDTGAWVIPIAHNSGRLWPRNAFLKYPGLITLSIGPAISSAGKSGDQLNREVQAWIEAEMRRIDADSYEGHHHHHH,not soluble
17,MSLKTIAINQYGSADEFTMVDMPTTEPQADEVQVAIHAFSLNPMDIAGRMGALSSPFTDLWAFPLVLGWDFAGVITKMGKAVTGFNIGDAVFGSAAPAHAANNGTYGEFITVNTKELAHLPAGLSFDQAAALPIAGLTAYYGMKHNLKLQSGQKILVQGGAGGVGLFAIQIAKAFGAYVATTASANHRDLLTRLGADEVIDYHETDPAAVLHDYDAVFDTVGDIDTGLKVLKADGQLATIAGQPTDEQQHDQQKKVAFQFTQGSSQDLADLAQLVVSGQVKLTVATLPFSVANVIKGHRSIESRHTTGKIVIHVTEGHHHHHH,not soluble
18,RTLGEVWKERLNQMTKEEFTRYRKEAIIEVDRSAAKHARKEGNVTGGHPVSRGTAKLRWLVERRFLEPVGKVIDLGCGRGGWCYYMATQKRVQEVRGYTKGGPGHEEPQLVQSYGWNIVTMKSGVDVFYRPSECCDTLLCDIGESSSSAEVEEHRTIRVLEMVEDWLHRGPREFCVKVLCPYMPKVIEKMELLQRRYGGGLVRNPLSRNSTHEMYWVSRASGNVVHSVNMTSQVLLGRMEKRTWKGPQYEEDVNLGSGTRAV,soluble
19,SRLYRHNLMEDVFNMENESFMQETRLMENEYSVNLPTRFYYKKRWNNGFVNIVNIFRACMVIGTPGSGKSYAIVNSYIRQLIAKGFAIYIYDYKFDDLSTIAYNSLLKNMDKYEVKPRFYVINFDDPRRSHRCNPINPEFMTDISDAYEASYTIMLNLNRTWIEKQGDFFVESPIILLAAIIWYLKIYKNGIYCTFPHAVELLNKPYSDLFTILTSYPELENYLSPFMDAWKGNAQDQLQGQIASAKIPLTRMISPQLYWVMTGNDFSLDINNPKEPKLLCVGNNPDRQNIYSAALGLYNSRIVKLINKKKQLKCAVIIDELPTIYFRGLDNLIATARSNKVGVLLGFQDFSQLTRDYGEKESKVIQNTVGNIFSGQVVGETAKTLSERFGKVLQQRQSVSINRQDVSTSINTQLDSLIPASKIANLSQGTFVGAVADNFDERIEQKIFHAEIVVDHTKISAEEKAYQKIPVINDFKDRNGNDIMMQQIQRNYDQIKADAQAIINEEMRRIKNDPELRKRLGLEDEKGKDPDKS,not soluble
20,MDRMYEQNQMPHNNEAEQSVLGSIIIDPELINTTQEVLLPESFYRGAHQHIFRAMMHLNEDNKEIDVVTLMDQLSTEGTLNEAGGPQYLAELSTNVPTTRNVQYYTDIVSKHALKRRLIQTADSIANDGYNDELELDAILSDAERRILELSSSRESDGFKDIRDVLGQVYETAEELDQNSGQTPGIPTGYRDLDQMTAGFNRNDLIILAARPSVGKTAFALNIAQKVATHEDMYTVGIFSLEMGADQLATRMICSSGNVDSNRLRTGTMTEEDWSRFTIAVGKLSRTKIFIDDTPGIRINDLRSKCRRLKQEHGLDMIVIDYLQLIQGSGSRASDNRQQEVSEISRTLKALARELECPVIALSQLSRGVEQRQDKRPMMSDIRESGSIEQDADIVAFLYRDDYYNRGGDEDDDDDGGFEPQTNDENGEIEIIIAKQRNGPTGTVKLHFMKQYNKFTDIDYAHADMM,not soluble
